{"source": "the supplement of paper PMC10567573", "parents": {"B1": {"name": "RAB22A (parent)", "chain": "FVEDSFDPNINPTIGASFMTKTVQ"}}}
{"variants_of": "B1", "test": "protein stability index of a GFP-peptide fusion (GPS, HEK-293T) (PSI 1-6); higher = more stable", "details": "c terminus: a fixed tail appended"}
{"variant": "FVEDSFDPNINPTIGASFCTKTVQ", "note": "[M19C]", "protein stability index": 2.66}
{"variant": "FVEDSFDPNINPTIGASFMYKTVQ", "note": "[T20Y]", "protein stability index": 1.86}
{"variant": "FVEDSFDPNINPTIGASFMNKTVQ", "note": "[T20N]", "protein stability index": 2.31}
{"variant": "FVEDSFDPNINPTIGASFMGKTVQ", "note": "[T20G]", "protein stability index": 2.58}
{"variant": "FVEDSFDPNINPTIGASFMQKTVQ", "note": "[T20Q]", "protein stability index": 2.24}
{"variant": "FVEDSFDPNINPTIGASFMKKTVQ", "note": "[T20K]", "protein stability index": 2.23}
{"variant": "FVEDSFDPNINPTIGASFMPKTVQ", "note": "[T20P]", "protein stability index": 2.29}
{"variant": "FVEDSFDPNINPTIGASFMSKTVQ", "note": "[T20S]", "protein stability index": 2.06}
{"variant": "FVEDSFDPNINPTIGASFMDKTVQ", "note": "[T20D]", "protein stability index": 2.52}
{"variant": "FVEDSFDPNINPTIGASFMAKTVQ", "note": "[T20A]", "protein stability index": 2.14}
{"variant": "FVEDSFDPNINPTIGASFMHKTVQ", "note": "[T20H]", "protein stability index": 2.34}
{"variant": "FVEDSFDPNINPTIGASFMCKTVQ", "note": "[T20C]", "protein stability index": 2.38}
{"variant": "FVEDSFDPNINPTIGASFMVKTVQ", "note": "[T20V]", "protein stability index": 2.23}
{"variant": "FVEDSFDPNINPTIGASFMRKTVQ", "note": "[T20R]", "protein stability index": 2.12}
{"variant": "FVEDSFDPNINPTIGASFMEKTVQ", "note": "[T20E]", "protein stability index": 2.39}
{"variant": "FVEDSFDPNINPTIGASFMIKTVQ", "note": "[T20I]", "protein stability index": 1.87}
{"variant": "FVEDSFDPNINPTIGASFMWKTVQ", "note": "[T20W]", "protein stability index": 2.35}
{"variant": "FVEDSFDPNINPTIGASFMFKTVQ", "note": "[T20F]", "protein stability index": 1.85}
{"variant": "FVEDSFDPNINPTIGASFMLKTVQ", "note": "[T20L]", "protein stability index": 1.66}
{"variant": "FVEDSFDPNINPTIGASFMMKTVQ", "note": "[T20M]", "protein stability index": 2.22}
{"variant": "FVEDSFDPNINPLIGASFMTKTVQ", "note": "[T13L]", "protein stability index": 2.21}
{"variant": "FVEDSFDPNINPRIGASFMTKTVQ", "note": "[T13R]", "protein stability index": 1.93}
{"variant": "FVEDSFDPNINPPIGASFMTKTVQ", "note": "[T13P]", "protein stability index": 2.67}
{"variant": "FVEDSFDPNINPWIGASFMTKTVQ", "note": "[T13W]", "protein stability index": 3.05}
{"variant": "FVEDSFDPNINPCIGASFMTKTVQ", "note": "[T13C]", "protein stability index": 1.79}
{"variant": "FVEDSFDPNINPYIGASFMTKTVQ", "note": "[T13Y]", "protein stability index": 1.73}
{"variant": "FVEDSFDPNINPKIGASFMTKTVQ", "note": "[T13K]", "protein stability index": 2.29}
{"variant": "FVEDSFDPNINPVIGASFMTKTVQ", "note": "[T13V]", "protein stability index": 2.29}
{"variant": "FVEDSFDPNINPDIGASFMTKTVQ", "note": "[T13D]", "protein stability index": 2.71}
{"variant": "FVEDSFDPNINPAIGASFMTKTVQ", "note": "[T13A]", "protein stability index": 2.39}
{"variant": "FVEDSFDPNINPNIGASFMTKTVQ", "note": "[T13N]", "protein stability index": 2.19}
{"variant": "FVEDSFDPNINPFIGASFMTKTVQ", "note": "[T13F]", "protein stability index": 1.59}
{"variant": "FVEDSFDPNINPIIGASFMTKTVQ", "note": "[T13I]", "protein stability index": 1.75}
{"variant": "FVEDSFDPNINPMIGASFMTKTVQ", "note": "[T13M]", "protein stability index": 1.91}
{"variant": "FVEDSFDPNINPQIGASFMTKTVQ", "note": "[T13Q]", "protein stability index": 2.44}
{"variant": "FVEDSFDPNINPSIGASFMTKTVQ", "note": "[T13S]", "protein stability index": 2.31}
{"variant": "FVEDSFDPNINPEIGASFMTKTVQ", "note": "[T13E]", "protein stability index": 2.52}
{"variant": "FVEDSFDPNINPHIGASFMTKTVQ", "note": "[T13H]", "protein stability index": 2.31}
{"variant": "FVEDSFDPNINPGIGASFMTKTVQ", "note": "[T13G]", "protein stability index": 2.15}
{"variant": "FVEDSFDPNINSTIGASFMTKTVQ", "note": "[P12S]", "protein stability index": 2.4}
{"variant": "FVEDSFDPNINITIGASFMTKTVQ", "note": "[P12I]", "protein stability index": 1.82}
{"variant": "FVEDSFDPNINMTIGASFMTKTVQ", "note": "[P12M]", "protein stability index": 1.89}
{"variant": "FVEDSFDPNINQTIGASFMTKTVQ", "note": "[P12Q]", "protein stability index": 2.45}
{"variant": "FVEDSFDPNINRTIGASFMTKTVQ", "note": "[P12R]", "protein stability index": 1.81}
{"variant": "FVEDSFDPNINLTIGASFMTKTVQ", "note": "[P12L]", "protein stability index": 1.85}
{"variant": "FVEDSFDPNINVTIGASFMTKTVQ", "note": "[P12V]", "protein stability index": 2.18}
{"variant": "FVEDSFDPNINNTIGASFMTKTVQ", "note": "[P12N]", "protein stability index": 2.15}
{"variant": "FVEDSFDPNINYTIGASFMTKTVQ", "note": "[P12Y]", "protein stability index": 2.37}
{"variant": "FVEDSFDPNINKTIGASFMTKTVQ", "note": "[P12K]", "protein stability index": 2.42}
{"variant": "FVEDSFDPNINTTIGASFMTKTVQ", "note": "[P12T]", "protein stability index": 2.25}
{"variant": "FVEDSFDPNINWTIGASFMTKTVQ", "note": "[P12W]", "protein stability index": 2.08}
{"variant": "FVEDSFDPNINPTIGASFMTNTVQ", "note": "[K21N]", "protein stability index": 2.51}
{"variant": "FVEDSFDPNINPTIGASFMTRTVQ", "note": "[K21R]", "protein stability index": 2.19}
{"variant": "FVEDSFDPNINPTIGASFMTQTVQ", "note": "[K21Q]", "protein stability index": 2.87}
{"variant": "FVEDSFDPNINPTIGASFMTYTVQ", "note": "[K21Y]", "protein stability index": 1.93}
{"variant": "FVEDSFDPNINPTIGASFMTATVQ", "note": "[K21A]", "protein stability index": 2.03}
{"variant": "FVEDSFDPNINPTIGASFMTETVQ", "note": "[K21E]", "protein stability index": 2.67}
{"variant": "FVEDSFDPNINPTIGASFMTPTVQ", "note": "[K21P]", "protein stability index": 2.74}
{"variant": "FVEDSFDPNINPTIGASFMTSTVQ", "note": "[K21S]", "protein stability index": 2.11}
{"variant": "FVEDSFDPNINPTIGASFMTTTVQ", "note": "[K21T]", "protein stability index": 2.41}
{"variant": "FVEDSFDPNINPTIGASFMTDTVQ", "note": "[K21D]", "protein stability index": 2.87}
{"variant": "FVEDSFDPNINPTIGASFMTMTVQ", "note": "[K21M]", "protein stability index": 1.94}
{"variant": "FVEDSFDPNINPTIGASFMTCTVQ", "note": "[K21C]", "protein stability index": 1.56}
{"variant": "FVEDSFDPNINPTIGASFMTVTVQ", "note": "[K21V]", "protein stability index": 1.89}
{"variant": "FVEDSFDPNINPTIGASFMTLTVQ", "note": "[K21L]", "protein stability index": 2.24}
{"variant": "FVEDSFDPNINPTIGASFMTITVQ", "note": "[K21I]", "protein stability index": 2.18}
{"variant": "FVEDSFDPNINPTIGASFMTWTVQ", "note": "[K21W]", "protein stability index": 2.44}
{"variant": "FVEDSFDPNINPTIGASFMTGTVQ", "note": "[K21G]", "protein stability index": 2.29}
{"variant": "FVEDSFDPNINPTIGASFMTFTVQ", "note": "[K21F]", "protein stability index": 2.38}
{"variant": "FVEDSFDPNINPTIGASFMTHTVQ", "note": "[K21H]", "protein stability index": 2.08}
{"variant": "FVEDSFDPNINPTIGALFMTKTVQ", "note": "[S17L]", "protein stability index": 1.77}
{"variant": "FVEDSFDPNINPTIGATFMTKTVQ", "note": "[S17T]", "protein stability index": 2.17}
{"variant": "FVEDSFDPNINPTIGAGFMTKTVQ", "note": "[S17G]", "protein stability index": 2.31}
{"variant": "FVEDSFDPNINPTIGAEFMTKTVQ", "note": "[S17E]", "protein stability index": 2.66}
{"variant": "FVEDSFDPNINPTIGAAFMTKTVQ", "note": "[S17A]", "protein stability index": 2.18}
{"variant": "FVEDSFDPNINPTIGAKFMTKTVQ", "note": "[S17K]", "protein stability index": 2.29}
{"variant": "FVEDSFDPNINPTIGAWFMTKTVQ", "note": "[S17W]", "protein stability index": 1.96}
{"variant": "FVEDSFDPNINPTIGAPFMTKTVQ", "note": "[S17P]", "protein stability index": 2.49}
{"variant": "FVEDSFDPNINPTIGARFMTKTVQ", "note": "[S17R]", "protein stability index": 2.51}
{"variant": "FVEDSFDPNINPTIGAVFMTKTVQ", "note": "[S17V]", "protein stability index": 1.74}
{"variant": "FVEDSFDPNINPTIGAYFMTKTVQ", "note": "[S17Y]", "protein stability index": 1.82}
{"variant": "FVEDSFDPNINPTIGANFMTKTVQ", "note": "[S17N]", "protein stability index": 2.28}
{"variant": "FVEDSFDPNINPTIGAIFMTKTVQ", "note": "[S17I]", "protein stability index": 2.25}
{"variant": "FVEDSFDPNINPTIGAHFMTKTVQ", "note": "[S17H]", "protein stability index": 2.35}
{"variant": "FVEDSFDPNINPTIGADFMTKTVQ", "note": "[S17D]", "protein stability index": 2.53}
{"variant": "FVEDSFDPNINPTIGACFMTKTVQ", "note": "[S17C]", "protein stability index": 2.04}
{"variant": "FVEDSFDPNINPTIGAMFMTKTVQ", "note": "[S17M]", "protein stability index": 1.74}
{"variant": "FVEDSFDPNINPTIGAQFMTKTVQ", "note": "[S17Q]", "protein stability index": 2.6}
{"variant": "FVEDSFDPNINPTIGAFFMTKTVQ", "note": "[S17F]", "protein stability index": 2.14}
{"variant": "FVEDSFDPNINPTIGASFMTKCVQ", "note": "[T22C]", "protein stability index": 2.35}
{"variant": "FVEDSFDPNINPTIGASFMTKAVQ", "note": "[T22A]", "protein stability index": 2.43}
{"variant": "FVEDSFDPNINPTIGASFMTKDVQ", "note": "[T22D]", "protein stability index": 2.85}
{"variant": "FVEDSFDPNINPTIGASFMTKFVQ", "note": "[T22F]", "protein stability index": 2.02}
{"variant": "FVEDSFDPNINPTIGASFMTKEVQ", "note": "[T22E]", "protein stability index": 2.91}
